The results in this text go back to PMC9279676, “ERK2 MAP kinase regulates SUFU binding by multisite phosphorylation of GLI1” (Life Science Alliance, 2022).

Values joined by “and” are separate entries in the source; they are usually repeats but may differ in a detail not shown here. Equal entries are not always repeated.

Experiment [1] has as its target T1, full-length human SUFU protein, 35S-radiolabeled (human, UniProt Q9UMX1-1 1-484, [35S]-methionine label).
T1 construct: human SUFU, full length, residues 1-484, from plasmid pGEM4Z-SUFU; also called 35S-SUFU; radiolabeled SUFU; source: in vitro transcription and translation (SP6, Promega), partially purified by ammonium sulfate precipitation
T1 sequence (looked up): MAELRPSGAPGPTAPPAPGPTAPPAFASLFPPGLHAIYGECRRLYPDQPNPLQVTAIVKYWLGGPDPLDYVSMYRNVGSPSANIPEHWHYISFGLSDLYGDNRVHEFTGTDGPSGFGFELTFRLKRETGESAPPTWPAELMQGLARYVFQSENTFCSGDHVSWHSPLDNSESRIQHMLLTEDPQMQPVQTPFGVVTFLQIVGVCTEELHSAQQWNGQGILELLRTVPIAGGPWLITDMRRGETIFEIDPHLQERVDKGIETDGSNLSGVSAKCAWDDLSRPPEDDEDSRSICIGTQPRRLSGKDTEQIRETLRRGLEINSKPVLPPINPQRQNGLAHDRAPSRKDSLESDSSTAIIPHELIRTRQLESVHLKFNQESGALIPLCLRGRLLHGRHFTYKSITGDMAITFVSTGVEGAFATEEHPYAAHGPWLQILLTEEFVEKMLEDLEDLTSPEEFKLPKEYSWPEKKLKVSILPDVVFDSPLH
Nature of the experiment: pull-down; purified GST-GLI1_(68-232) variants (mock treated or ERK2 phosphorylated), 0 or 1.25-80 nM, on glutathione-Sepharose beads; ∼1 pmol 35S-SUFU in 200 μl; 15 min at 30°C, then 1 h at room temperature; Binding Buffer (20 mM Tris-HCl pH 7.5, 125 mM KOAc, 0.5 mM EDTA, 5 mM DTT, 0.1% Tween20, 12.5% glycerol) + 1 mg/ml BSA; bound SUFU quantified by SDS-PAGE and Phosphorimager; Kd from binding isotherms. The settings on record: one partner purified.

Experiment [2] addresses T2, GST-SUFU (fusion of GST to full-length human SUFU) (human, UniProt Q9UMX1-1 1-484).
T2 construct: human SUFU, full length (residues 1-484), BamHI-SUFU-SalI cassette in pGEX-LB; pGEX-LB carries a Gly-Gly-Gly-Gly-Gly-Ser-Gly stretch between GST and the fused protein; also called full-length GST-SUFU; source: Escherichia coli, purified (glutathione-Sepharose); not shown: GST, N-terminal, kept
T2 sequence (looked up): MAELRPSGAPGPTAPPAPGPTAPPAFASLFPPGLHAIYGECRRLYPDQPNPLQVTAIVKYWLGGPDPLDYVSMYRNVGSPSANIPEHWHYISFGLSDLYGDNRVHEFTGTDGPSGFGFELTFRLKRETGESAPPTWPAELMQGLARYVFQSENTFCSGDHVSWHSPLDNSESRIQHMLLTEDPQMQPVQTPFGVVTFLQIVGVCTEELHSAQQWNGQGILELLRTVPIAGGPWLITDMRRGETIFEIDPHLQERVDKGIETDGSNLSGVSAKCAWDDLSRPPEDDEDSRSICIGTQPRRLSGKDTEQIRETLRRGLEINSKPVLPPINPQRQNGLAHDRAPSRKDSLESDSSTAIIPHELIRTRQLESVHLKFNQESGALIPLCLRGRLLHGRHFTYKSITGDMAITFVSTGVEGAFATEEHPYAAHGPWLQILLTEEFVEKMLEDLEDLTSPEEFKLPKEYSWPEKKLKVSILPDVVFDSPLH
Nature of the experiment: pull-down; purified GST-SUFU, 1.25-80 nM, captured on glutathione-Sepharose beads; ∼1 pmol 35S-GLI1 (1-232 or full length) in 200 μl; 15 min at 30°C, then 1 h at room temperature; Binding Buffer + 1 mg/ml BSA; bound GLI1 quantified by SDS-PAGE and Phosphorimager; Kd from binding isotherms. The settings on record: one partner purified.

B1: GST-GLI1^SSS, phosphorylated by ERK2 (domain or fragment, human, UniProt P08151-1 68-232, looked up)
chain: FSAPRSAVKLTKKRALSIAPLSDASLDLQTVIRTSPSSLVAFINSRCTSPGGSYGHLSIGTMSPSLGFPAQMNHQKGPAPSFGVQPCGPHDSARGGMIPHPQSRGPFPTCQLKSELDMLVGKCREEPLEGDMSAPNSTGIQDPLLGMLDGREDLEREEKREPESV
modifications: phosphorylated by ERK2; intact SP sites S102, S116, S130
notes: only S102, S116 and S130 left intact; also called ERK-phosphorylated GLI1^SSS; phosphorylated GLI1^SSS mutant; source: bacteria, purified (glutathione-Sepharose); then phosphorylated with purified active ERK2
The term Kd denotes the constant that tells how readily two partners part at equilibrium. For B1, the Kd in experiment [1] came out at 127 nM.

B2: GST-GLI1^S102, phosphorylated by ERK2 (domain or fragment, human, UniProt P08151-1 68-232, looked up)
chain: FSAPRSAVKLTKKRALSIAPLSDASLDLQTVIRTSPSSLVAFINSRCTAPGGSYGHLSIGTMAPSLGFPAQMNHQKGPAPSFGVQPCGPHDSARGGMIPHPQSRGPFPTCQLKSELDMLVGKCREEPLEGDMSAPNSTGIQDPLLGMLDGREDLEREEKREPESV
modifications: phosphorylated by ERK2; only intact SP site S102
notes: only the SP site S102 intact; also called ERK2-treated GLI1^S102; source: bacteria, purified (glutathione-Sepharose); then phosphorylated with purified active ERK2
Turning to B2, in experiment [1], the Kd amounted to 14 ± 4 nM.

B3: GST-GLI1^SSS (GST-GLI1_(68-232) S70A S86A S146A S201A), mock treated (domain or fragment, human, UniProt P08151-1 68-232, looked up)
chain: FSAPRSAVKLTKKRALSIAPLSDASLDLQTVIRTSPSSLVAFINSRCTSPGGSYGHLSIGTMSPSLGFPAQMNHQKGPAPSFGVQPCGPHDSARGGMIPHPQSRGPFPTCQLKSELDMLVGKCREEPLEGDMSAPNSTGIQDPLLGMLDGREDLEREEKREPESV
notes: only S102, S116 and S130 left intact; source: bacteria, purified (glutathione-Sepharose); mock treated (no ERK2)
Regarding B3, the Kd in experiment [1] amounted to 2.6 nM.

B4: GLI1_(1-232), wild type, 35S-radiolabeled (domain or fragment, human, UniProt P08151-1 1-232, looked up)
chain: MFNSMTPPPISSYGEPCCLRPLPSQGAPSVGTEGLSGPPFCHQANLMSGPHSYGPARETNSCTEGPLFSSPRSAVKLTKKRALSISPLSDASLDLQTVIRTSPSSLVAFINSRCTSPGGSYGHLSIGTMSPSLGFPAQMNHQKGPSPSFGVQPCGPHDSARGGMIPHPQSRGPFPTCQLKSELDMLVGKCREEPLEGDMSSPNSTGIQDPLLGMLDGREDLEREEKREPESV
modifications: [35S]-methionine label
notes: source: in vitro transcription/translation (T7), partially purified by ammonium sulfate precipitation
As for B4, the Kd in experiment [2] was 8 nM and 14 nM.

B5: GLI1_(1-232) S102E S116E S130E, 35S-radiolabeled (domain or fragment, human, UniProt P08151-1 1-232, looked up)
chain: MFNSMTPPPISSYGEPCCLRPLPSQGAPSVGTEGLSGPPFCHQANLMSGPHSYGPARETNSCTEGPLFSSPRSAVKLTKKRALSISPLSDASLDLQTVIRTEPSSLVAFINSRCTEPGGSYGHLSIGTMEPSLGFPAQMNHQKGPSPSFGVQPCGPHDSARGGMIPHPQSRGPFPTCQLKSELDMLVGKCREEPLEGDMSSPNSTGIQDPLLGMLDGREDLEREEKREPESV
modifications: [35S]-methionine label
notes: also called S102E S116E S130E triple mutant; EEE; source: in vitro transcription/translation (T7), partially purified by ammonium sulfate precipitation
On to B5, for which the “fold reduction in affinity against wild-type GLI1_(1-232)” value (shortened to “fold reduction in affinity”) in experiment [2] was 65 fold.

B6: GLI1_(1-232) S105F (tumor-derived), 35S-radiolabeled (domain or fragment, human, UniProt P08151-1 1-232, looked up)
chain: MFNSMTPPPISSYGEPCCLRPLPSQGAPSVGTEGLSGPPFCHQANLMSGPHSYGPARETNSCTEGPLFSSPRSAVKLTKKRALSISPLSDASLDLQTVIRTSPSFLVAFINSRCTSPGGSYGHLSIGTMSPSLGFPAQMNHQKGPSPSFGVQPCGPHDSARGGMIPHPQSRGPFPTCQLKSELDMLVGKCREEPLEGDMSSPNSTGIQDPLLGMLDGREDLEREEKREPESV
modifications: [35S]-methionine label
notes: source: in vitro transcription/translation, partially purified by ammonium sulfate precipitation
Regarding B6, the Kd in experiment [2] was found to be 181 ± 30 nM.

B7: GLI1_(1-232) L124P (tumor-derived), 35S-radiolabeled (domain or fragment, human, UniProt P08151-1 1-232, looked up)
chain: MFNSMTPPPISSYGEPCCLRPLPSQGAPSVGTEGLSGPPFCHQANLMSGPHSYGPARETNSCTEGPLFSSPRSAVKLTKKRALSISPLSDASLDLQTVIRTSPSSLVAFINSRCTSPGGSYGHPSIGTMSPSLGFPAQMNHQKGPSPSFGVQPCGPHDSARGGMIPHPQSRGPFPTCQLKSELDMLVGKCREEPLEGDMSSPNSTGIQDPLLGMLDGREDLEREEKREPESV
modifications: [35S]-methionine label
notes: as for B6
Take B7: the Kd in experiment [2] came to 3800 nM.

B8: GLI1_(1-232) S102E, 35S-radiolabeled (domain or fragment, human, UniProt P08151-1 1-232, looked up)
chain: MFNSMTPPPISSYGEPCCLRPLPSQGAPSVGTEGLSGPPFCHQANLMSGPHSYGPARETNSCTEGPLFSSPRSAVKLTKKRALSISPLSDASLDLQTVIRTEPSSLVAFINSRCTSPGGSYGHLSIGTMSPSLGFPAQMNHQKGPSPSFGVQPCGPHDSARGGMIPHPQSRGPFPTCQLKSELDMLVGKCREEPLEGDMSSPNSTGIQDPLLGMLDGREDLEREEKREPESV
modifications: [35S]-methionine label
notes: as for B4
For B8, the “fold reduction in affinity” value in experiment [2] is ~8 fold.

B9: GLI1_(1-232) S102E S116E, 35S-radiolabeled (domain or fragment, human, UniProt P08151-1 1-232, looked up)
chain: MFNSMTPPPISSYGEPCCLRPLPSQGAPSVGTEGLSGPPFCHQANLMSGPHSYGPARETNSCTEGPLFSSPRSAVKLTKKRALSISPLSDASLDLQTVIRTEPSSLVAFINSRCTEPGGSYGHLSIGTMSPSLGFPAQMNHQKGPSPSFGVQPCGPHDSARGGMIPHPQSRGPFPTCQLKSELDMLVGKCREEPLEGDMSSPNSTGIQDPLLGMLDGREDLEREEKREPESV
modifications: [35S]-methionine label
notes: also called S102E S116E double mutant; source: in vitro transcription/translation (T7), partially purified by ammonium sulfate precipitation
Turning to B9, the “fold reduction in affinity” value in experiment [2] was 12 fold.

B10: GLI1_(1-232) S102E S130E, 35S-radiolabeled (domain or fragment, human, UniProt P08151-1 1-232, looked up)
chain: MFNSMTPPPISSYGEPCCLRPLPSQGAPSVGTEGLSGPPFCHQANLMSGPHSYGPARETNSCTEGPLFSSPRSAVKLTKKRALSISPLSDASLDLQTVIRTEPSSLVAFINSRCTSPGGSYGHLSIGTMEPSLGFPAQMNHQKGPSPSFGVQPCGPHDSARGGMIPHPQSRGPFPTCQLKSELDMLVGKCREEPLEGDMSSPNSTGIQDPLLGMLDGREDLEREEKREPESV
modifications: [35S]-methionine label
notes: also called S102E S130E double mutant; source: in vitro transcription/translation (T7), partially purified by ammonium sulfate precipitation
B10: in experiment [2], the “fold reduction in affinity” value was determined as 38 fold.
